Laboratory results as given in paper PMC11293989 (Molecular cancer therapeutics, 2024).
Each block holds one molecule with its values, some of them ahead of it.

Assays:
Assay in all cases: SPR
[1] = biological target: NGM438, humanized IgG1 effector-less monoclonal antibody against LAIR1
[2] = biological target: recombinant human LAIR1-his (Homo sapiens, UniProt Q6GTX8)
human LAIR2 = human LAIR2 (Homo sapiens, UniProt Q6ISS4)
LAIR1 from mouse = LAIR1 from mouse (Mus musculus, UniProt Q8BG84)
LAIR1 from rat = LAIR1 from rat (Rattus norvegicus, UniProt P0C1X9)
LAIR1 from rat, sequence (P0C1X9 22-263): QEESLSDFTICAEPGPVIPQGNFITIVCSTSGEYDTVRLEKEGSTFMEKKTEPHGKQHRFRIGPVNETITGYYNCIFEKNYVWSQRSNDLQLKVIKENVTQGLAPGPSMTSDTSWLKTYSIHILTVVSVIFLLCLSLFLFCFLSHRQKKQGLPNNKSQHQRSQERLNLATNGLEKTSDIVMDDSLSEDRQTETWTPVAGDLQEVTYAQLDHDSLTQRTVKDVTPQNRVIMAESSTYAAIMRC

recombinant human LAIR1-his, sequence (Q6GTX8 22-287): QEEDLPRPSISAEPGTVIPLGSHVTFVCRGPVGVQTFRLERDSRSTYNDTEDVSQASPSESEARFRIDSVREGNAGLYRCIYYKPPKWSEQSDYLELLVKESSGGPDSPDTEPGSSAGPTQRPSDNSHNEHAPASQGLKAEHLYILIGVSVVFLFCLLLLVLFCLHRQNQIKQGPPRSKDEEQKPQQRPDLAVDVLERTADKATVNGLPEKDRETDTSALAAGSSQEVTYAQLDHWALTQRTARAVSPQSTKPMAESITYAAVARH
human LAIR2, sequence (Q6ISS4 22-152): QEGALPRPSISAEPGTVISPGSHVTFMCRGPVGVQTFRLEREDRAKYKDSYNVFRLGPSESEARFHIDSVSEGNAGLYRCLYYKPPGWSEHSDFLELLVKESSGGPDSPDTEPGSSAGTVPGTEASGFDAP
LAIR1 from mouse, sequence (Q8BG84 22-263): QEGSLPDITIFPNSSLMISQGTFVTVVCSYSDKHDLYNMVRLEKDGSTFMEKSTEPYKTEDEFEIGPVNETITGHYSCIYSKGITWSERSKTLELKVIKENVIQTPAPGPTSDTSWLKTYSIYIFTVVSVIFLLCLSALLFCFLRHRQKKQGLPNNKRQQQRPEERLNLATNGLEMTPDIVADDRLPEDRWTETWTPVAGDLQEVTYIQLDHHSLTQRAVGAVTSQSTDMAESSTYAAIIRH

Kd [1]: 4.28 nM
Molecule: recombinant cynomolgus monkey LAIR1-his (receptor)

Kd [2]: 0.26 ± 0.03 nM
binding result (human LAIR2): no binding
binding result (LAIR1 from mouse): no binding
binding result (LAIR1 from rat): no binding
B1: NGM438, humanized IgG1 effector-less monoclonal antibody against LAIR1 (antibody, V domains shown)
VH: EVQLVESGGGLVQPGGSLRLSCAASGFTFNINAMNWVRQAPGKGLEWVARIRTKNYNYATFYADSVKDRFTISRDDSKNSLYLQMNSLKTEDTAVYYCVRDRAGFFAYWGQGTTVTVSS
VL: DIQMTQSPSSLSASVGDRVTITCLASQTIGTWLGWYQQKPGKAPKLLIYAATSLAEGVPSRFSGSGSGTDFTLTISSLQPEDFATYYCQQLYSTPLTFGGGTKVEIK
